From patent US20180194859A1

Biological target: Recombinant EGFR/His (UniProt P00533)
Experiment: SPR (Biacore T200), antibody captured on anti-human Fc, EGFR/His as analyte, 1:1 fit

## αHER2×αEGFR LDAb (trastuzumab IgG2 azide clicked to cetuximab IgG2 DBCO) (bispecific antibody)
  Kd: 2.8 nM
